# Reference: patent US12091454B2, “Humanized anti-human neurotensin receptor 1 antibodies and their uses” (DEVELOPMENT CENTER FOR BIOTECHNOLOGY, priority 2022, dated 2024)
# Values joined by “and” are separate entries in the source; they are usually repeats but may differ in a detail not shown here. Identical values can stand only once.
# What was measured:
# [1] = system: NTSR1 linear L2-biotin protein; assay: Binding affinity of the humanized antibodies by ELISA; design: species or system human; conditions: for binding signal for NTSR1 in binding ELISA: FIG. 4; for Kd: binding ELISA, non-linear regression
# Method: ELISA plates were coated with 1-2 μg/100 μL per well of NTSR1 linear L2-biotin protein. Wells were rinsed for 3 times with PBS and blocked with 300 μL of 5% MPBS per well for 2 hr at 37° C. After washing with PBS, wells were incubated with serial diluted NTSR1 antibodies in 5% MPBS for 1.5 hours at 37° C. The plates were washed and goat polyclonal anti-human IgG-HRP antibody (1:10,000) (JACKSON IMMUNORESEARCH®) was added into each well. The OD at 650 nm and at 450 nm was read. Readings were obtained by subtracting OD650 from OD450 and the binding affinities of antibodies were calculated by non-linear regression with Prism software (GRAPHPAD®).
# [2] = system: NTSR1 expressing cells, FaDu; assay: Cell-binding assay by FACS; design: species or system human
# Method: Anti-NTSR1 antibodies were used to detect cells that express NTSR1 on the cell surfaces, for example using FACS. NTSR1 expressing cells, FaDu, were harvested and re-suspended in 5% PBS/FBS buffer. The cells (1×10^5) were incubated with anti-NTSR1 antibody (1-10 μg/ml) or negative control, at 4° C. for 1 hr, and then stained with goat anti-human IgG FITC conjugate ( 1/1000) at 4° C. for 1 hr. For each assay, two additional controls were prepared; one without primary antibody and the other one with absence of any antibody. All treated samples were analyzed with FACSVERSE™ (BECTON DICKINSON®) and the results were processed by FACSUITE™ software (BECTON DICKINSON®).
# NTSR1 protein = NTSR1 protein (Homo sapiens, UniProt P30989); assay: SPR (BIACORE T200) multi-cycle kinetic assay; conditions: 25° C., one-to-one Langmuir binding model
# Method: To know the binding kinetics differences among individual anti-NTSR1 antibodies, surface plasmon resonance (SPR) measurement with BIACORE™ T200 (CYTIVA® Inc.) was used as previously described (Karlsson & Falt, (1997) J. Immunol Methods 200:121-133). Carboxymethylated dextran biosensor chips (CM5, CYTIVA® Inc.) were activated with N-ethyl-N′-(3-dimethylaminopropyl)-carbodiimide hydrochloride (EDC) and N-hydroxysuccinimide (NHS) according to the supplier's instructions. NTSR1 protein was diluted with 10 mM sodium acetate, pH 4.0, into 5 μg/ml before injection at a flow rate of 10 μL/minute to achieve approximately 1500 response units (RU) of coupled protein followed by the injection of 1 M ethanolamine to block unreacted groups. For kinetics measurements, two-fold serial dilutions of anti-NTSR1 mAb (0.3125 nM to 40 nM) were injected in HBS-EP+BIACORET™ running buffer provided by the manufacturer (CYTIVA® Inc.) at 25° C. at a flow rate of 30 μL/min, and binding responses on the NTSR1 protein were corrected by subtraction of responses on a blank flow cell. Association rates (kon or Ka) and dissociation rates (koff or Kd) were calculated using a simple one-to-one Langmuir binding model with separate fittings of kon and koff. (CYTIVA® BIACORET™ Insight Evaluation Software).
# [3] = In vivo pharmacokinetic analysis (MSD ECL total antibody assay); conditions: BALB/c mice, 5 mg/kg via the tail vein
# From the text: This Example used Meso Scale Discovery (MSD) Electrochemiluminescent (ECL) method to conduct the PK analysis of the anti-NTSR1 antibodies αNTSR1 (AKT2), αNTSR1 (AKT2 Hu/Hu) and αNTSR1 (AKT2 Hu/Hd) in BALB/c mice samples. The MSD assay can measure both conjugated and unconjugated antibodies. As illustrated in this example, for total antibody assay (including conjugated and unconjugated antibodies), the plate is coated with goat anti-human IgG, which can capture all humanized antibodies (conjugated and unconjugated).
# The mice were administered at a dose level of 5 mg/kg via the tail vein. Blood samples were then obtained at different time points for determining the concentrations of αNTSR1 (AKT2), αNTSR1 (AKT2 Hu/Hu) and αNTSR1 (AKT2 Hu/Hd) in mice by MESO QuickPlex SQ 120 method. The PK parameters of αNTSR1 (AKT2), αNTSR1 (AKT2 Hu/Hu) and αNTSR1 (AKT2 Hu/Hd) were analyzed by noncompartmental analysis using PHOENIX™ for WinNonlin Program, version 6.3.
# [4] = system: FaDu human head and neck cancer xenograft; assay: Xenograft model of anti-NTSR1 ADCs (head and neck cancer); type: in vivo, male NOD SCID mice; conditions: 5 mpk, IV, BIW × 3
# Method: The aim of this study was to evaluate the in vivo anti-tumor efficacy of αNTSR1 (AKT2) 4seco-DUBA, αNTSR1 (AKT2 Hu/Hu) 4seco-DUBA, and αNTSR1 (AKT2 Hu/Hd) 4seco-DUBA in FaDu human head and neck cancer xenograft model in male NOD SCID mice.
# Formulations respectively comprising test article αNTSR1 (AKT2) 4seco-DUBA, test article αNTSR1 (AKT2 Hu/Hu) 4seco-DUBA, test article αNTSR1 (AKT2 Hu/Hd) 4seco-DUBA, and Hu IgG were formulated by diluting the stock with a 25 mM sodium citrate buffer (pH 6.5). […]
# The FaDu cells were maintained in vitro as a monolayer culture in RPMI-1640 medium supplemented with 10% fetal bovine serum at 37° C. in an atmosphere of 5% CO2 in air. The tumor cells were routinely sub-cultured twice weekly by trypsin-EDTA treatment. The cells growing in an exponential growth phase were harvested and counted for tumor inoculation.
# Male NOD SCID mice at age of 6-7 weeks were quarantined for one week. Five mice were housed in each cage. All animals were hosted in the animal facility with a 12-h light/12-h dark cycle at 19-25° C. Animals had free access to rodent pellet foods and water ad libitum.
# FaDu cells were subcutaneously (SC) implanted (4×10^6 cells in 1:1 PBS/matrigel mixture at 0.1 mL per mouse) into the right flank of male NOD SCID mice. When the average tumor volume had reached about 200 mm^3, the mice were randomly divided into 7 groups (N=6 per group). Each of Hu IgG, αNTSR1 (AKT2) 4seco-DUBA (5 mg/kg), αNTSR1 (AKT2 Hu/Hu) 4seco-DUBA (5 mg/kg), and αNTSR1 (AKT2 Hu/Hd) 4seco-DUBA (5 mg/kg) was intravenously administered twice weekly for 3 weeks.
# The tumor volumes, body weights, mortality, and signs of overt toxicity were monitored and recorded three times weekly for 28 days. Tumor volumes (mm^3) were measured three times per week using calipers and calculated according to the formula: Tumor Volume=(w^2×l)/2, where w=width and l=length in diameter (mm) of the tumor. The percentages of tumor growth inhibition (TGI) were calculated using the following formula: % TGI=[1−(T/C)]×100%, where T and C represent the mean tumor volumes of the treatment group and the control group, respectively. A TGI (%) value≥58% was considered as indicating significant anti-tumor activity. Animals were weighed three times weekly until the completion of the study.
# NTSR1 protein, sequence (P30989 whole entry): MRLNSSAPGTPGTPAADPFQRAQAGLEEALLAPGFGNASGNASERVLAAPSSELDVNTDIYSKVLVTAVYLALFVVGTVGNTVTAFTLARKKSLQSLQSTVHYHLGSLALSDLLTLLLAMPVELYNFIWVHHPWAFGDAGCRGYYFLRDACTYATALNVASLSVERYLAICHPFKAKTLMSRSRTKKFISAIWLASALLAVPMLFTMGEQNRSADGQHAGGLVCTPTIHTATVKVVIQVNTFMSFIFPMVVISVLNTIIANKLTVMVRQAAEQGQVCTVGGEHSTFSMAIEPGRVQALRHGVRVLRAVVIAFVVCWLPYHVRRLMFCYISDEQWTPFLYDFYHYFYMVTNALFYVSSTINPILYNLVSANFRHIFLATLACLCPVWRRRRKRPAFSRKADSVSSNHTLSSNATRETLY
molecule,measurement,setting,value
"7C3 HdHd: humanized anti-NTSR1 antibody, 7C3 HdVH (SEQ ID NO: 11) and 7C3 HdVL (SEQ ID NO: 12) (antibody, V domains shown) VH: EVQLVESGGGLVQPGGSLRLSCAASGYTFTSSWIHWVRQAPGKGLEWVAQIRPNSGNTYYNEKFKVRFTISRDDSKNTLYLQMNSLRAEDTAVYYCARYYYGFDYWGQGTLVTVSS VL: DIQMTQSPSSLSASVGDRVTITCRSSQSIVHSNGNTYLEWYQQKPGKAPKLLIYKVSNRFSGVPSRFSGSGSGTDFTLTISSLQPEDFATYYCFQGSHLPWTFGQGTKVEIK",binding signal for NTSR1 in binding ELISA,[1],much lower binding signals
"7C3 HdHu: humanized anti-NTSR1 antibody, presumably 7C3 HdVH paired with 7C3 HuVL (antibody, V domains shown) VH: EVQLVESGGGLVQPGGSLRLSCAASGYTFTSSWIHWVRQAPGKGLEWVAQIRPNSGNTYYNEKFKVRFTISRDDSKNTLYLQMNSLRAEDTAVYYCARYYYGFDYWGQGTLVTVSS VL: DIVMTQTPLSLSVTPGQPASISCRSSQSIVHSNGNTYLEWYLQKPGQSPQLLIYKVSNRFSGVPDRFSGSGSGTDFTLKISRVEAEDVGVYYCFQGSHLPWTFGQGTKVEIK",binding signal for NTSR1 in binding ELISA,[1],much lower binding signals
"7C3 HuHu: humanized anti-NTSR1 antibody, 7C3 HuVH (SEQ ID NO: 13) and 7C3 HuVL (SEQ ID NO: 14) (antibody, V domains shown) VH: QVQLVQSGAEVKKPGASVKVSCKASGYTFTSSWIHWVRQAPGQGLEWMGQIRPNSGNTYYNEKFKVRVTMTRDTSTSTVYMELSSLRSEDTAVYYCARYYYGFDYWGQGTLVTVSS VL: DIVMTQTPLSLSVTPGQPASISCRSSQSIVHSNGNTYLEWYLQKPGQSPQLLIYKVSNRFSGVPDRFSGSGSGTDFTLKISRVEAEDVGVYYCFQGSHLPWTFGQGTKVEIK",binding signal for NTSR1 in binding ELISA,[1],good binding signal
same,Kd,[1],0.294 nM
same,binding to FaDu cells,[2]; concentration of 1 μg/mL,do not bind well
same,binding to FaDu cells,[2]; concentration of 10 μg/mL,do not bind significantly
"7C3 MM: mouse-human chimera anti-NTSR1 antibody, m7C3 VH (SEQ ID NO: 7) and m7C3 VL (SEQ ID NO: 8) (antibody, V domains shown) VH: QVQLQQPGSVLVRPGDSVMLSCKASGYTFTSSWIHWAKQRPGQGPEWIGQIRPNSGNTYYNEKFKVKATLTVDTSSSTAYVDLSSLTSEDSAVYYCARYYYGFDYWGQGTTVTVSS VL: DVLMTQTPLSLPVSLGDQASISCRSSQSIVHSNGNTYLEWYLQKPGQSPKLLIYKVSNRFSGVPDRFSGSGSGTDFTLKISRVEAEDLGVYYCFQGSHLPWTFGGGTKLEIK",Kd,[1],0.676 nM
same,binding to FaDu cells,[2]; concentration of 1 μg/mL,do not bind well
same,binding to FaDu cells,[2]; concentration of 10 μg/mL,do not bind significantly
"7C3 HuHd: humanized anti-NTSR1 antibody, 7C3 HuVH paired with 7C3 HdVL (antibody, V domains shown) VH: QVQLVQSGAEVKKPGASVKVSCKASGYTFTSSWIHWVRQAPGQGLEWMGQIRPNSGNTYYNEKFKVRVTMTRDTSTSTVYMELSSLRSEDTAVYYCARYYYGFDYWGQGTLVTVSS VL: DIQMTQSPSSLSASVGDRVTITCRSSQSIVHSNGNTYLEWYQQKPGKAPKLLIYKVSNRFSGVPSRFSGSGSGTDFTLTISSLQPEDFATYYCFQGSHLPWTFGQGTKVEIK",binding signal for NTSR1 in binding ELISA,[1],good binding signal
same,binding to FaDu cells,[2]; concentration of 1 μg/mL,do not bind well
same,binding to FaDu cells,[2]; concentration of 10 μg/mL,do not bind significantly
"AKT2: affinity-matured mouse-human chimera anti-NTSR1 antibody, AKT2 VH (SEQ ID NO: 9) and AKT2 VL (SEQ ID NO: 10) (antibody, V domains shown) VH: QVQLQQPGSVLVRPGASVKLSCKASGYAFTSSWIHWAKQRPGQGLEWIGQIRPNSGNTYYNEKFKVKATLTVDTSSSTAYVDLSSLTSEDSAVYYCARYHYGFDYWGQGTLVTVSS VL: DVLMTQTPLSLPVSLGDQASISCRSSQSIVHSNGNTYLEWYLQKPGQSPKLLIYKVSNRFSGVPDRFSGSGSGTDFTLKISRVEAEDLGVYYCFQGAHLPWTFGGGTKLEIK","Ka (kon, association rate)",NTSR1 protein,406800 M⁻¹ s⁻¹
same,"Kd (koff, dissociation rate)",NTSR1 protein,0.0006558 s⁻¹
same,MRT,[3]; total antibody,89.6 ± 6.6 h
same,Vss,[3]; total antibody,0.159 ± 0.010 L/kg
same,t½,[3]; total antibody,71.7 ± 5.1^ h
same,in vivo half live,"[3]; listed as αNTSR1 (AKT2), 5 mg/kg",71.7 ± 5.1 h and 71 h
same,TGI % (1-T/C) Day 0,[4]; Day 0,0.0%
same,TGI % (1-T/C) Day 5,[4]; Day 5,11.1%
same,TGI % (1-T/C) Day 7,[4]; Day 7,34.8%
same,TGI % (1-T/C) Day 10,[4]; Day 10,31.0%
same,TGI % (1-T/C) Day 12,[4]; Day 12,31.1%
same,TGI % (1-T/C) Day 14,[4]; Day 14,29.9%
same,TGI % (1-T/C) Day 17,[4]; Day 17,21.6%
